Experimental data reported in paper PMC6307106.

What was measured:
[1] = biological target: PDGFRα extracellular domain (Homo sapiens, UniProt P16234 24-524); assay: SPR
[2] = biological target: PDGFRβ (recombinant) (UniProt P09619 33-532); assay: SPR
Chain of PDGFRβ (recombinant) (P09619 33-532): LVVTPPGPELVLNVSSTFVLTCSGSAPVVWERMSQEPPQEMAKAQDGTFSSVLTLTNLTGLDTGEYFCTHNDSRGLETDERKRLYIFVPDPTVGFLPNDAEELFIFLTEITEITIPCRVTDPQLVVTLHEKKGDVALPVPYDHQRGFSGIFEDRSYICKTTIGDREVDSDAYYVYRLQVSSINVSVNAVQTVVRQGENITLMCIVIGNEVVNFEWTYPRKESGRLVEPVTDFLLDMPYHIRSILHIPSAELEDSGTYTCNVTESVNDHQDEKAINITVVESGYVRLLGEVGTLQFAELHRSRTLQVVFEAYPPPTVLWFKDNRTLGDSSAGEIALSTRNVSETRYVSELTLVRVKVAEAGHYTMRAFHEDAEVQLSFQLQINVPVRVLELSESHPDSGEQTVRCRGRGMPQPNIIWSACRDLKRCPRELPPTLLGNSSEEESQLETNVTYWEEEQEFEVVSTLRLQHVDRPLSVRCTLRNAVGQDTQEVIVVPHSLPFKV

Chain of PDGFRα extracellular domain (P16234 24-524): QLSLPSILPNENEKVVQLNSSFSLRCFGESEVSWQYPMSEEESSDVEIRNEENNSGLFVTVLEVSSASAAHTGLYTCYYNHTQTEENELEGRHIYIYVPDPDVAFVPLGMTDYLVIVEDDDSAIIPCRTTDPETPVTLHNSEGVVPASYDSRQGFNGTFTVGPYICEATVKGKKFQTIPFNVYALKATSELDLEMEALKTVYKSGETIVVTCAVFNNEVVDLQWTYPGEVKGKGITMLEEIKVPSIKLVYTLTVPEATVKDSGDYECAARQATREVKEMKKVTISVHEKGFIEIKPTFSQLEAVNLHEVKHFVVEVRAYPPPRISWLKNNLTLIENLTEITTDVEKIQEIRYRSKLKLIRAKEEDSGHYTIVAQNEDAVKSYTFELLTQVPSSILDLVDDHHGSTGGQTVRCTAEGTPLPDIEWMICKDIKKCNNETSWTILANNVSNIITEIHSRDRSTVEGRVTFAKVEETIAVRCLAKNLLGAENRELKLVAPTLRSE

B1: PDR3 (structured_RNA)
RNA: GGGAGAGCGGAAGCGUGCUGGGCCUGCUCUUUAAUAAACCCACUUUCGAACAUCAGCGUAUGUCCAUAACCCAGAGGUGAUGGAUCCCCC
modifications: 2'-F pyrimidines (2'F-U, 2'F-C)
Question: Which Kd [1] does the source give for B1 here?
Answer: 250 pM

Question: Does B1 bind [2]?
Answer: no binding
